Experiment: yeast display, Sf9 membrane polyspecificity reagent, FACS + sequencing; frameworks hold sequencing errors
In short: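 Polyreactivity labels are assigned by the sorting gate from which each nanobody was recovered. The gates were low and high (top ~1%), set on anti-HA fluorescence for expression and streptavidin fluorescence for reagent binding. Before sorting, galactose-induced (36–48 hours) yeast display cells were stained for 1 hour at 4 °C with 10% biotinylated, detergent-solubilized Sf9 membrane reagent.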

Sequence | polyreactivity (PSR sort gate)
QVQLVESGGGLVQAGVSLRLSCAASGGIFGNYAMGGYRQAPAKERELVAAINGGTSTYYADSVKGRFTISRDNAKNTVYLQMNCLKPEDTAGYYCAADWRYLYYALDYWGQGTQVTVSS | low polyreactivity
QVQLVESGGGLVQAGGSLRLSCAASGRILGDYAMGWYIQAPGKERELVAAISSGGTTYYADSVKGRFTISRDNAKNTVYLQMNSLKPEDTAVYYCAALTSTLPAYGYWGQGTQVTVSS | low polyreactivity
QVQLVESGGGLVQAGGSLRLSCAASGSTFVYYAMGWYRQAPGKERELVAAISWSSDSTYYADSEKGRFTISRDNAKNTVYLQMNSLKPEDTAVYYCARSDGRQSYWTDFSTDYYFWGQGTQVTVSS | low polyreactivity
QVQLVESGGGLVQAGGSLRLSCAASGRIFDDNAMGWYRQAPGKERELVAAITGPDDSTDYADSVKGRFTISRDNAKNTVYLQMNSLKPEDTAVYYCAKDAGYWYYWNGYWGQGTQVTVSS | high polyreactivity
QVQHVESGGALVQAGGSHRLSCAASGLTIWRYAKGWYRLATGKERELVAAINYNGVRTYYADSVKGRFTISRDNAKNTVYLQMNSLKQEDTAVYYCAAKPGYYGYWGQGTQVTVSS | high polyreactivity
QVQLVESGGGLVQAGGTLRLSCAASGITLKLYVMGWYRQAPGKERELVAAISRRGGSTYYADSVKGRFTLSRDNAKYTVYLQMISLKPEDTAVYYCAKDGTQYERKDPAYGYWGQGTQVTVSS | high polyreactivity
QVQLVESGGGLVQAGGSLRLSCAASGSTFRYYTMGWYRQAPGKEREFVAAITSSGTSTYYADSVKGRFTISRDNAKNTVYLQMNSLKPEDTAVYYCNKVGIYGSRSRYDSWGQGTQVTVSS | high polyreactivity
QVQLVESGGGLVQAGGSLRLRCAASGRTFAFYGMGWYRQAPGNARELVAAITKRGGSTYYADSVKGRFTISLDNAKYTVYLQMNSLKPEDTAVYYCAATGVKGRIAVWYGYWGQGTQVTVSS | high polyreactivity
QVQLVESGGGLVQAGGSLRLSCAASGSTFYRYAMGWYRQAPGKERELVAAITSAGSTNYADSVKGRFTISRDNAKNTVYLQMNSLKPEDTAVYYCAADHGRPYFSYDYWGQGTQVTVSS | low polyreactivity
QVQLVESGGGLVQAGGSLRLSCAASGFIFWINAMGWYRQAPGKERELVAAITKNGGTTYYADSVKGRFTISRDNAKNTVYLLMNSLKPEDTAVYYCAAGGIGGDQEVEGPMNYWGQGTQVTVSS | low polyreactivity
QVQLVESGGGLVQAGGSLRLSCAASGRTFPGYGMGWYRQAPGKERELVAVITSNGGITYYADSVKWRFTISRDIAKYTVYLVMNRLIAEDTAVYFCAAYEIYYEFVCWGQGSQVTVSS | low polyreactivity
QVQLEESGGGLVQAGGSLRLSCAASGSTFYPNAMGWYRQAPGKERELVAAISQRGGRKYYADSVKGRFTISRDNAKNTVYLQMNSLKPEDTAVYYCAATYQGYNSWYSFGYWGQGTQVTVSS | high polyreactivity
QVQLVESGGGLDQAGGSLRLSCAASGGIFYHNAMGWYRQAPGKERELVAVISWSRTRTYYADSVKGRFTISRDNAKNTVYLQMNILTPDDTAVYYCAASPDPYWVRMDYWGQGTQVNVSS | high polyreactivity
QVQLVESGGGLVQAGGSLRLSCAASGRIFKANDMGWYRQAPGKERELVAITSSDSTNYADSVKGRFTISRDNAKNTVYLQMNSLKPEDTAVYYCAALSYYYSDRMDYWGQGTQVTVSS | low polyreactivity
QVQLVESGGGLVQAGGSLRLSCAASGIIFVKNAMGWYRQAPGKVRELVAAISRSGARTYYADSVKGRFTISRDNAKNTVYLLMNSLKPEDSAVYYCNKVVRYGHTRKIDTESDYWGQGTQVTVSS | high polyreactivity
QVQLVESGGGLVQAGGSLRLSCAAYGRIFNDYTMGWYRQAPGKERELVADITNRDTSTSYADSVKGRFIISRDNANNTVYLQMYILKPDDTAVYYCNAQQVIVVYRPGDYWGQGTQVTVSS | low polyreactivity
QVQLVESGGGLVQAGGSLRLSCAASGSIFDLYAMGWYRQAPGKERELVAGISYSGGSTYYADSVKGRFTISRDNAKNTVYLQMNSLKPEDTAVYHCADDGGWRYHPFSSLFDYWGQGTQVTVSS | low polyreactivity
QVQVVESGGGLDQAGGSLRLSCAASGSIFQVYSMGWYRQAPGQERALVAAITWAAGSTYADSVKGRFTISRDNAKNTVYLQLKSLKPDDTAVYYCAAYPYVGYVTSSAYDYWGQGTQVTVSS | low polyreactivity
QVQLVESGGGLVHAGGSLRLSCASSGFTFWKYAIGGYRQAPGKERELVATISLGGARTYYADSVKGRFTISLDNAKNTVYLQMNSLKPEDTAVYYCNARCRWTANFDYWVQGTQVTVSS | high polyreactivity
QVQLVESGGGLVQAGGSLRLSCAASGSTVRRYAMGWYRQAPGKERELVAAISWSGGSTYYADSVKGRFTISRDNAKNTGYLQMNSLKPEDTAVYYCAARGVTSYWQDYDYWGQGTQLTVSS | low polyreactivity
RVQLVESAGGLLQAGGSLRLSCAASGRTFTLYAMGWDRQAPGKDRELVAAIRWSGSSTYYADSVKGRFTISRDYAKHTVYLQINSLKPEATAVYYCAARAGRYERYGYWGQGTQVTVSS | high polyreactivity
QDQHVESGGGLVQAGGSLRLSCAASGRTFVPYAMGWYRQAPGKERELVATISRSGGRTNYADSVKGRFTISRDNAKNTVYIQMNSLKPEDTAVYYCAATGFLTWRHMYYWGQGTQVTVSS | high polyreactivity

Sequence | polyreactivity (PSR sort gate)
QVQLVESGGGLVQAGGSLRLICAASGFTFSYYAMGWYRQAPGKESELVAGITTGGGTNYADSVKGRFTISRDNAKNTVYLQMNCLKPEDTAVYYCNAVGSHWVSYSSPVRFDFWGQGTQVTVSS | low polyreactivity
QVQLVESGGGLVQAGGSLRLSCAASGSIFIINAMVWYRQAPGKERELVAAINNGVNTYYADSVKGRFTISRDNAKNTVYLQMNSLKPEDTAGYYCAADYGDPRVNEYDYWGQGTQVTVSS | low polyreactivity
QVQLEESGGGIVQAGGSLRLSCAASGRIFYHYAMGGYRKAPGKEREWVAAISGSGGSTYYADSVKGGFTISRYNAKNTVYLQMNSLNPEDTAVFYCSTSGPQYYARNFDYCGQGTQVTVSS | low polyreactivity
QVQLVESGGGLVQAGGSLRLSCAASGRTFRPYALGGYRPAPGKERELVAVITSGGSTYYADSVKGRFTISRDNAKNTVYLQMNSLKPEDTAVYYCARVYRSYAWSGYDYWGQGTQVTVSS | high polyreactivity
QVQLVETGGGLVQAGGSLRLSCAASGSTFTRYGMGWYRQAPGKERELVADITTSGSSTYYADSVKGRFTISRDNAKNTVYLQMNSLKPEDTAVYYCAADWSSWGFDYWGQGTQVTVSS | low polyreactivity
QVQLVESGGGLVQAGGSLRLSCAASGIIFQTYAMGWYRQAPGKERELVAAISRSGGSTYYADSVKGRFTISRDNAKNTVYLQMNSLKPEDTAVYYCAAYGYHVNWLKGNYWGQGTQVTVSS | high polyreactivity
QVQLVESGGGLVQAGGSLRLSCAASGSIFVAYAMGWYRQAPGKERELVAAITYSAGSTYYADSVKGRFTISRDNAKNTVYLQMNSLKPEDTAVYYCAADTYTYFLASYLYGQYDYWGQGTQVTVSS | low polyreactivity
QVQLVESGGGLVQAGGSLRLSCAASGSTFRGNAMGWYRQAPGKERELVAAITGRGGRTYYADSVKGRFTISRDNAKNTVYLQMNSLKPEDTAVYYCAAYSRYKPYGITAYDYWGQGTQVTVSS | high polyreactivity
QVQLVESGGGLVQAGGSLRLSCAASGSTCERYAMGWSRQAPGKERELVAVISYRGTSTYYADSVKGRFTISRDNAKNTVYLQMNSLKAEDTAVYDCAAEPYRTVTAYRYSLYWYNYWGQGTQVTVSS | high polyreactivity
QEQLQESGGGLVQAGGSLCLSCAASGTIFFDGDMGWYRQAPGKEREFVAAINPGGSAYYADSVKGRLPLAAITHTVYLQMNSLKPEDTAVYYCAAKLFDVYGYYYWGQGTHVTVSS | low polyreactivity
QVQLVESGGGLVQAGGSLRLSCAASGFIFYYYTMGWYRQAPGKERELVAAISSGGSTYYADSVKGRFTISRDNAKNTVYLQMNSLKPEDTAVYYCNKRYPSPEYNYWGQGTQVTVSS | high polyreactivity
QVQLVESGGGLVQAGGSLRLSCAASGSTIIDYDMGWYRQAPGKERELVAGISWSGGRTYYADSVKGRFTISRDNAKNTVYLQMNSLKPEDTEVYYCNKVGRGARTSDYWGQGTQVTVSS | high polyreactivity
QVQLVESGGGVVQAGGSLRLSCAASGRTFRRNAMGWYRQAPGKERELVAAITSSGGSTYYADSVKGRFTISRDNAKNTVYFQMNSLKPEDTEVYYCNAFYTGRSAPDSWGQGTQVTVSS | high polyreactivity
QVQLVESGGGLVQAGGSLRLSCAASGGIFSSYAMGGYRQAPGKERELVASISRRGTSTYYADSVKGRFTISRDNAKNTVYLQMNSLKPEDTAVYYCAAGTKYTSAVHFYYWGQGTQVTVSS | high polyreactivity
QVQLVDSGGGLVQAGGSLRLSCAASGNIFWENTMGSYRQAPGKERELVASISNTGTTNYADSVKGRFTISRDNAKNTVYLQMNSLKPEDTAVYDCNTDLWIDTASPAPNDDDYWGQGTQVTVSS | low polyreactivity
QVQLVESGGGLVQAGGSLRLSCAASGSTFVLYAMGWYRQAPGKERELVADITWSGGSTYYADSVKGRFTISRDNAMNTVYLLMNSLKPEDTAVYYCAARYPWVYYDFDYWGQGTQVTVSS | low polyreactivity
QVQLVESGGGLVQAGGSLRLSCAASGSTFVRNAMGWYRQAPGKERELVAGISTGDKTYYADSVKGRFTISRDNAKNTVYLQMNSLKPEDTAVYYCAASVGTYQTATLDYDSWGQGTQVTVSS | low polyreactivity
QVQLEESGGGLVQAGGILRLSCAFYYGIGWYRQATGKERELVAAINLGGGSTYYADSVKGLFTISRDNAKNTVYLQMNSLKPEDTAVYYGAADVGSRTYYVKYDYWGQGTEVTVSS | low polyreactivity
QVQLVESGGGLVQAGGSLRLSCAASGRTIITYAMGWYRQAPGKERELVAAINSTDGTSYADSVKGRFTISRDNAKNTVYLQMNSLKPEDTAVYYCARGTEVKSGISYRFYYWGQGTQVTVSS | low polyreactivity
QVQLVESGVGLVQAGGSLRLSCAASGTTIVSYAMGWYRQAPGKEMEFVATISISGTSTYYADSVKGRFTISRDNAKNTVYLQMNSLKPEDTAVYYCAARLRPRGATQFYRYDYWGQGTQVTVSS | high polyreactivity
QVQLQESGGGLVQAGGSLRLSCAASGYISLAQTIGWYRQAPGKEREFVASIALGSRTYYTDSVKGSFTISRDNAKTTVYLQMNSLKAEDTAVYYCAARVGASYAHDYWGQGTQVTVSS | low polyreactivity
